# Results: the supplement of paper PMC9112550, “Optimization of the antimicrobial peptide Bac7 by deep mutational scanning” (BMC Biology, 2022)
# Tested on: Escherichia coli TOP10
# Assay: shrunken log2 fold change of peptide-encoding DNA abundance (4.5 h post-induction vs induction); higher = less antimicrobial activity (less host growth inhibition)
# Conditions: time post-induction: 4.5 h; library: site-saturation at positions 5, 18, 19, 20
# 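Also: peptides expressed intracellularly from a pBAD plasmid library in pooled LB shake-flask culture, induced with 0.3% L-arabinose, DNA abundance read by NGS, three biological replicates, DESeq2 with apeglm shrinkage.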
row,Sequence,shrunken log2 fold change
1,RRIRRRPPRLPRPRPRPYILPRP,0.366
2,RRIRMRPPRLPRPRPRPDCEPRP,2.29
3,RRIRSRPPRLPRPRPRPFILPRP,-0.695
4,RRIRKRPPRLPRPRPRPAMHPRP,0.402
5,RRIRDRPPRLPRPRPRPWELPRP,0.18
6,RRIRSRPPRLPRPRPRPWFNPRP,-0.227
7,RRIRRRPPRLPRPRPRPDKLPRP,-0.115
8,RRIRDRPPRLPRPRPRPHDMPRP,-0.0819
9,RRIRIRPPRLPRPRPRPRDNPRP,-0.348
10,RRIRMRPPRLPRPRPRPAHWPRP,0.792
11,RRIRGRPPRLPRPRPRPTREPRP,0.994
12,RRIRPRPPRLPRPRPRPYMGPRP,-0.659
13,RRIRHRPPRLPRPRPRPVIEPRP,-0.0264
14,RRIRQRPPRLPRPRPRPVANPRP,0.124
15,RRIRLRPPRLPRPRPRPRSSPRP,-0.277
16,RRIRGRPPRLPRPRPRPWIGPRP,0.0233
17,RRIRGRPPRLPRPRPRPALCPRP,0.925
18,RRIRNRPPRLPRPRPRPQTEPRP,-0.219
19,RRIRIRPPRLPRPRPRPNAVPRP,-0.266
20,RRIRWRPPRLPRPRPRPQIVPRP,0.0235
21,RRIRPRPPRLPRPRPRPTHSPRP,0.185
22,RRIRCRPPRLPRPRPRPHDDPRP,-0.104
23,RRIRPRPPRLPRPRPRPDDCPRP,-0.0649
24,RRIRVRPPRLPRPRPRPDNKPRP,-0.581
25,RRIRRRPPRLPRPRPRPHAYPRP,-0.394

row,Sequence,shrunken log2 fold change
1,RRIRERPPRLPRPRPRPRQYPRP,-0.369
2,RRIRLRPPRLPRPRPRPSKLPRP,-0.388
3,RRIRYRPPRLPRPRPRPLNHPRP,-0.796
4,RRIRTRPPRLPRPRPRPSNLPRP,-0.97
5,RRIRNRPPRLPRPRPRPQGWPRP,0.114
6,RRIRHRPPRLPRPRPRPTLAPRP,0.382
7,RRIRSRPPRLPRPRPRPQWVPRP,0.0964
8,RRIRKRPPRLPRPRPRPDQMPRP,-0.0646
9,RRIRVRPPRLPRPRPRPYMAPRP,-0.629
10,RRIRKRPPRLPRPRPRPSKLPRP,0.0104
11,RRIRDRPPRLPRPRPRPNGMPRP,-0.0609
12,RRIRHRPPRLPRPRPRPIMWPRP,-0.0163
13,RRIRYRPPRLPRPRPRPNNIPRP,-1.24
14,RRIRYRPPRLPRPRPRPGFWPRP,0.689
15,RRIRFRPPRLPRPRPRPMWVPRP,-0.00617
16,RRIRNRPPRLPRPRPRPRLQPRP,0.0236
17,RRIRWRPPRLPRPRPRPSFRPRP,-0.261
18,RRIRTRPPRLPRPRPRPDRGPRP,-0.252
19,RRIRKRPPRLPRPRPRPLEAPRP,0.505
20,RRIRTRPPRLPRPRPRPIIYPRP,-0.216
21,RRIRIRPPRLPRPRPRPVFGPRP,-0.0092
22,RRIRARPPRLPRPRPRPHEEPRP,0.793
23,RRIRKRPPRLPRPRPRPFTFPRP,-0.325
24,RRIRMRPPRLPRPRPRPDLMPRP,-0.0157
25,RRIRVRPPRLPRPRPRPAMVPRP,0.118

row,Sequence,shrunken log2 fold change
1,RRIRKRPPRLPRPRPRPVFRPRP,0.278
2,RRIRNRPPRLPRPRPRPDVPPRP,-0.199
3,RRIRMRPPRLPRPRPRPYWKPRP,0.0275
4,RRIRGRPPRLPRPRPRPKLMPRP,1
5,RRIRNRPPRLPRPRPRPQHHPRP,-0.432
6,RRIRMRPPRLPRPRPRPTRRPRP,1.14
7,RRIRQRPPRLPRPRPRPLCAPRP,0.172
8,RRIRFRPPRLPRPRPRPCYRPRP,-0.573
9,RRIRPRPPRLPRPRPRPFMWPRP,-0.168
10,RRIRHRPPRLPRPRPRPLKCPRP,-0.024
11,RRIRYRPPRLPRPRPRPDRFPRP,-0.411
12,RRIRWRPPRLPRPRPRPFSAPRP,-0.133
13,RRIRVRPPRLPRPRPRPNCCPRP,-0.0903
14,RRIRSRPPRLPRPRPRPMFMPRP,-0.223
15,RRIRTRPPRLPRPRPRPITMPRP,-0.595
16,RRIRIRPPRLPRPRPRPTLHPRP,-0.377
17,RRIRNRPPRLPRPRPRPMRVPRP,0.161
18,RRIRVRPPRLPRPRPRPSITPRP,-0.504
19,RRIRRRPPRLPRPRPRPKIFPRP,0.0586
20,RRIRKRPPRLPRPRPRPFLWPRP,-0.119
21,RRIRYRPPRLPRPRPRPHHSPRP,-1.27
22,RRIRHRPPRLPRPRPRPQSSPRP,-0.0152
23,RRIRTRPPRLPRPRPRPITFPRP,-0.108
24,RRIRKRPPRLPRPRPRPEMLPRP,2
25,RRIRERPPRLPRPRPRPYCVPRP,-0.165

row,Sequence,shrunken log2 fold change
1,RRIRQRPPRLPRPRPRPKALPRP,-0.0462
2,RRIRQRPPRLPRPRPRPMNWPRP,-0.0581
3,RRIRRRPPRLPRPRPRPMDHPRP,-0.0417
4,RRIRKRPPRLPRPRPRPKMIPRP,-0.0764
5,RRIRTRPPRLPRPRPRPSPPPRP,-0.0898
6,RRIRTRPPRLPRPRPRPTCWPRP,0.00427
7,RRIRNRPPRLPRPRPRPNSFPRP,-0.00469
8,RRIRRRPPRLPRPRPRPRTLPRP,0.311
9,RRIRYRPPRLPRPRPRPKLCPRP,-0.0301
10,RRIRQRPPRLPRPRPRPKVHPRP,-0.0859
11,RRIRTRPPRLPRPRPRPICWPRP,-0.13
12,RRIRIRPPRLPRPRPRPVDLPRP,0.0939
13,RRIRLRPPRLPRPRPRPPYRPRP,-0.0286
14,RRIRSRPPRLPRPRPRPEVTPRP,0.501
15,RRIRVRPPRLPRPRPRPDSPPRP,0.0663
16,RRIRQRPPRLPRPRPRPHWCPRP,0.1
17,RRIRCRPPRLPRPRPRPMHWPRP,0.00478
18,RRIRHRPPRLPRPRPRPADWPRP,0.0838
19,RRIRCRPPRLPRPRPRPDVLPRP,-0.489
20,RRIRTRPPRLPRPRPRPEPAPRP,0.763
21,RRIRLRPPRLPRPRPRPFIEPRP,-0.372
22,RRIRCRPPRLPRPRPRPTGDPRP,0.231
23,RRIRYRPPRLPRPRPRPFIYPRP,-0.86
24,RRIRPRPPRLPRPRPRPHLVPRP,-0.034
25,RRIRCRPPRLPRPRPRPPASPRP,0.723

row,Sequence,shrunken log2 fold change
1,RRIRQRPPRLPRPRPRPCGHPRP,0.0101
2,RRIRTRPPRLPRPRPRPTPRPRP,0.674
3,RRIRKRPPRLPRPRPRPCPEPRP,0.196
4,RRIRLRPPRLPRPRPRPHSVPRP,-0.0683
5,RRIRTRPPRLPRPRPRPMGQPRP,0.103
6,RRIRQRPPRLPRPRPRPRVSPRP,-0.0909
7,RRIRIRPPRLPRPRPRPANFPRP,-0.554
8,RRIRIRPPRLPRPRPRPLFNPRP,-1.02
9,RRIRNRPPRLPRPRPRPMESPRP,-0.0333
10,RRIRLRPPRLPRPRPRPTPAPRP,0.306
11,RRIRKRPPRLPRPRPRPAMTPRP,0.596
12,RRIRDRPPRLPRPRPRPCRMPRP,0.0112
13,RRIRIRPPRLPRPRPRPGEIPRP,-0.123
14,RRIRRRPPRLPRPRPRPMPEPRP,0.124
15,RRIRPRPPRLPRPRPRPSRMPRP,-0.114
16,RRIRARPPRLPRPRPRPDFHPRP,-0.0502
17,RRIRERPPRLPRPRPRPQKAPRP,-0.0836
18,RRIRGRPPRLPRPRPRPNQTPRP,-0.0961
19,RRIRWRPPRLPRPRPRPTWYPRP,0.27
20,RRIRSRPPRLPRPRPRPYSKPRP,-0.994
21,RRIRKRPPRLPRPRPRPCQLPRP,-0.0631
22,RRIRARPPRLPRPRPRPHWQPRP,0.124
23,RRIRCRPPRLPRPRPRPFDEPRP,-0.0888
24,RRIRLRPPRLPRPRPRPTHSPRP,0.122
25,RRIRHRPPRLPRPRPRPKAYPRP,0.0124

row,Sequence,shrunken log2 fold change
1,RRIRGRPPRLPRPRPRPFQDPRP,-0.000102
2,RRIRARPPRLPRPRPRPLDWPRP,1
3,RRIRCRPPRLPRPRPRPPAYPRP,0.176
4,RRIRPRPPRLPRPRPRPVPMPRP,0.0911
5,RRIRHRPPRLPRPRPRPANVPRP,-0.192
6,RRIRGRPPRLPRPRPRPLNTPRP,0.0396
7,RRIRLRPPRLPRPRPRPKHFPRP,-0.494
8,RRIRTRPPRLPRPRPRPHTNPRP,0.0124
9,RRIRGRPPRLPRPRPRPKAMPRP,0.147
10,RRIRRRPPRLPRPRPRPCCYPRP,0.0352
11,RRIRERPPRLPRPRPRPELPPRP,-0.0646
12,RRIRKRPPRLPRPRPRPCHHPRP,-0.411
13,RRIRCRPPRLPRPRPRPWFIPRP,-0.51
14,RRIRLRPPRLPRPRPRPRCAPRP,0.504
15,RRIRIRPPRLPRPRPRPVWVPRP,0.107
16,RRIRIRPPRLPRPRPRPDDKPRP,-0.266
17,RRIRFRPPRLPRPRPRPLAWPRP,0.32
18,RRIRIRPPRLPRPRPRPLRIPRP,-0.346
19,RRIRNRPPRLPRPRPRPPGFPRP,1.54
20,RRIRARPPRLPRPRPRPFDPPRP,0.0109
21,RRIRLRPPRLPRPRPRPAPNPRP,0.555
22,RRIRGRPPRLPRPRPRPLGRPRP,0.599
23,RRIRSRPPRLPRPRPRPVPCPRP,-0.226
24,RRIRCRPPRLPRPRPRPVIGPRP,-0.18
25,RRIRIRPPRLPRPRPRPYIGPRP,-0.775
